Legend:
hCD16A-158V-his protein = target: T1, hCD16A-158V-his protein (human, UniProt P08637 17-208); assay: ELISA, plate-coated his-tagged antigen 2 ug/mL
T1 construct: extracellular domain; Bought protein; also called human CD16A-158V-his; Human CD16A-158V (protein)
Protocol: (§1) In order to determine the binding ability of the chimeric Abs to human CD16A protein, ELISA-based binding assay was performed as followed. […] The mixture was incubated for 1 hour at room temperature (RT). The primary antibody was recognized by a detective antibody against human IgG Fc which was conjugated with horseradish peroxidase (HRP) (Jackson Immuno, Cat. No. 109-035-008). Tetramethylbenzidine (TMB), a substrate of HRP, was added to the wells to visualize the binding signal. After sufficient color development, stop solution was added to the wells. The absorbance of the signal was detected at 450 nm with Envision multilabel plate readers (PerkinElemer). The graph and statistics analysis were generated with four-parameter nonlinear regression curve fit in Graphpad Prism 9 software.
(§2) In order to determine the cross reactivity of the chimeric Abs to cynomolgus CD16, ELISA binding assay was performed as described above. Recombinant cyno CD16 ECD his tag protein (cynoCD16-his, Acro Bio, Cat. No. FC6-C52H9) was used as the coating antigen at 2 μg/mL.

[1] = target: T2, Recombinant cyno CD16 ECD his tag protein (cynomolgus, UniProt Q8SPW2 17-208); assay: ELISA, plate-coated his-tagged antigen 2 ug/mL
T2 construct: extracellular domain; Bought protein; also called cynoCD16-his; cynomolgus CD16-his
Protocol: as §1, §2

hCD16A-158F-his protein = target: T3, hCD16A-158F-his protein (human, UniProt P08637 17-208); assay: ELISA, plate-coated his-tagged antigen 2 ug/mL
T3 construct: Bought protein
Protocol: as §1, §2

[2] = target: T4, human CD16B-NA1 ECD his tag protein (human, UniProt O75015 17-200); assay: ELISA, hCD16B-NA1-his coated at 2 ug/mL, OD450
T4 construct: extracellular domain; Bought protein; also called hCD16B-NA1-his; hCD16B-NA1 protein
Protocol: as §1
(§3) In order to determine the binding ability of the chimeric Abs to human CD16B protein, ELISA binding assay was performed as previously described. Three spliced isoforms of CD16B including human CD16B-NA1 ECD his tag protein (hCD16B-NA1-his, Acro Bio, Cat: No. CDB-H5227), human CD16B-NA2 ECD his tag protein (hCD16B-NA2-his, Acro Bio, Cat: No. CDB-H82Ea) and human CD16B-SH-his protein, were used as the coating antigens at 2 μg/mL.

[3] = target: T5, human GPC3 on HepG2 cells (human, UniProt P51654 25-554); assay: flow cytometry, HepG2 cells (GPC3 positive), geometric mean
T5 construct: whole, on cells; also called GPC3-positive HepG2 cells

[4] = target: T6, human CD16B-NA1 expressed on CHO-K1 cells (human, UniProt O75015 17-200); assay: flow cytometry, CHO-K1-hCD16B-NA1 cells, geometric mean
T6 construct: whole, on cells; also called hCD16B-NA1; CHO-K1-hCD16B-NA1
Protocol: In order to evaluate the binding activity of the chimeric mAbs to human CD16A expressed on cells, cell-based binding assay was employed as followed. […] The antibody dilutions were incubated with 1×10⁵ indicated cells in the 96-well microplate for one hour at 4° C. The antibodies binding to the antigen on the cell surface were detected with PE fluorophore-conjugated anti-human IgG Fc secondary antibodies (ThermoFisher scientific, Cat. No. 12-4998-82) at a dilution rate of 1:1000. Cells were analyzed by flow cytometer LSRFortessa Cell Analyzer (BD Biosciences). Data were analyzed with Flowjo 10.0 software. The graph and statistics analysis were generated with four-parameter nonlinear regression curve fit in Graphpad Prism 9 software.
To exclude the non-specific binding of the CD16A chimeric antibody to human CD16B and CD32B expressed on cells, cell-based binding assay was performed as described above. Firstly, CHO-K1 cells were stably transferred with one human CD16B spliced isoform hCD16B-NA1 and human CD32B. Then, the cells were incubated with the indicated concentrations of CD16A chimeric antibodies.

[5] = target: T7, human CD16B-NA2 ECD his tag protein (human, UniProt O75015 17-200); assay: ELISA, hCD16B-NA2-his coated at 2 ug/mL, OD450
T7 construct: extracellular domain; Bought protein; also called hCD16B-NA2-his; hCD16B-NA2 protein
Protocol: as §1, §3

T1 sequence (P08637 17-208 F176V): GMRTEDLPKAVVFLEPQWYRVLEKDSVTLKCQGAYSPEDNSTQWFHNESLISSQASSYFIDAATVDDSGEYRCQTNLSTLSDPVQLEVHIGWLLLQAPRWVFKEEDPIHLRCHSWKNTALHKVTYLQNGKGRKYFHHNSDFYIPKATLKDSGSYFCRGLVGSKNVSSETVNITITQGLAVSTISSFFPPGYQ
T5 sequence (P51654 25-554 limits assumed): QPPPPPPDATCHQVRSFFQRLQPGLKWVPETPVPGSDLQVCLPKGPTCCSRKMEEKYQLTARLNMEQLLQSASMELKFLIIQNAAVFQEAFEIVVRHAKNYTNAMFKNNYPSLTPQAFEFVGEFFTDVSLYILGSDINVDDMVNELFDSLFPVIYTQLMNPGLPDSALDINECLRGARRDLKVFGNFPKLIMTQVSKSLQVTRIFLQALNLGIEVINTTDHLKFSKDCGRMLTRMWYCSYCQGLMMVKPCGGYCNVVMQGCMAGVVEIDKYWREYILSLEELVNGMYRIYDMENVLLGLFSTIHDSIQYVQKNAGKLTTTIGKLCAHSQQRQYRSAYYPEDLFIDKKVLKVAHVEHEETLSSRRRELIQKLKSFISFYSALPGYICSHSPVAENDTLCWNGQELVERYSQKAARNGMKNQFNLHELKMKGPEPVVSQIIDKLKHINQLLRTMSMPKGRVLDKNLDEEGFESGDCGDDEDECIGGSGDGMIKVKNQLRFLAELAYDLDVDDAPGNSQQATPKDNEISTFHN
T4 sequence (O75015 other isoform, or with tags, fused parts or gaps limits assumed): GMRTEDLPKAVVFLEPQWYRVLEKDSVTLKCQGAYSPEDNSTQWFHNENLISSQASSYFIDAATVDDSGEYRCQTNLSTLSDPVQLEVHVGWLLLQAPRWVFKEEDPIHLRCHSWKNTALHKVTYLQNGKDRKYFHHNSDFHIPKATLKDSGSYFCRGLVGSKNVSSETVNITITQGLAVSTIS
T6 sequence (O75015 other isoform, or with tags, fused parts or gaps): as the sequence (O75015 other isoform, or with tags, fused parts or gaps limits assumed) above
T2 sequence (Q8SPW2 17-208): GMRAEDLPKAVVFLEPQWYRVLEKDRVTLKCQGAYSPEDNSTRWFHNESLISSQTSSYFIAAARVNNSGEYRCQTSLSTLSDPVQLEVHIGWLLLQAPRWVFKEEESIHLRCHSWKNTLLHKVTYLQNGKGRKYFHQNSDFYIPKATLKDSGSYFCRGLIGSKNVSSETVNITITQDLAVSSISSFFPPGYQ
T7 sequence (O75015 17-200 N65S limits assumed): as the sequence (O75015 other isoform, or with tags, fused parts or gaps limits assumed) above, with R20S, N49S, D66N, V90I counted along it
T3 sequence (P08637 17-208 limits assumed): as the sequence (P08637 17-208 F176V) above, with V160F counted along it

EC50 (hCD16A-158V-his protein) [nM]	EC50 [1] [nM]	EC50 (hCD16A-158F-his protein) [nM]	binding result [2]	binding result [3]	binding result [4]	binding result [5]	Binder
0.1	0.68	0.33	no binding (tested: 20 nM)	no binding (tested: 100 nM)	no binding (tested: 100 nM)	no binding (tested: 20 nM)	45H6E8-hIgG1 LALAPG (antibody, also called 45H6E8 chimeric antibody) heavy: EVQLQQSGAELVRSGASVKLSCTASGFNIKDYYMQWVKQRPEQGLEWIGWIDPENGDTEYAPKFQGKATMTADTSSNTAYLQLSSLTSEDTAVYYCTTGGNYVDWGQGTTLTVSSASTKGPSVFPLAPSSKSTSGGTAALGCLVKDYFPEPVTVSWNSGALTSGVHTFPAVLQSSGLYSLSSVVTVPSSSLGTQTYICNVNHKPSNTKVDKKVEPKSCDKTHTCPPCPAPEAAGGPSVFLFPPKPKDTLMISRTPEVTCVVVDVSHEDPEVKFNWYVDGVEVHNAKTKPREEQYNSTYRVVSVLTVLHQDWLNGKEYKCKVSNKALGAPIEKTISKAKGQPREPQVYTLPPSREEMTKNQVSLTCLVKGFYPSDIAVEWESNGQPENNYKTTPPVLDSDGSFFLYSKLTVDKSRWQQGNVFSCSVMHEALHNHYTQKSLSLSPGK light: DIVMTQSQKFMSTSVGDRVSITCKASQNVGTAVAWYQQKPGQSPKLLIYSASNRYTGVPDRFTGSGSGTDFTLTISNMQSEDLADYFCQQYSSYPLLTFGAGTNLELKRTVAAPSVFIFPPSDEQLKSGTASVVCLLNNFYPREAKVQWKVDNALQSGNSQESVTEQDSKDSTYSLSSTLTLSKADYEKHKVYACEVTHQGLSSPVTKSFNRGEC
0.12	0.73	0.32	no binding (tested: 20 nM)	no binding (tested: 100 nM)	no binding (tested: 100 nM)	no binding (tested: 20 nM)	P2C47-hIgG1 LALAPG (antibody, also called benchmark antibody P2C47) heavy: QVQLVQSGAEVKKPGESLKVSCKASGYTFTSYYMHWVRQAPGQGLEWMGAIEPMYGSTSYAQKFQGRVTMTRDTSTSTVYMELSSLRSEDTAVYYCARGSAYYYDFADYWGQGTLVTVSSASTKGPSVFPLAPSSKSTSGGTAALGCLVKDYFPEPVTVSWNSGALTSGVHTFPAVLQSSGLYSLSSVVTVPSSSLGTQTYICNVNHKPSNTKVDKKVEPKSCDKTHTCPPCPAPEAAGGPSVFLFPPKPKDTLMISRTPEVTCVVVDVSHEDPEVKFNWYVDGVEVHNAKTKPREEQYNSTYRVVSVLTVLHQDWLNGKEYKCKVSNKALGAPIEKTISKAKGQPREPQVYTLPPSREEMTKNQVSLTCLVKGFYPSDIAVEWESNGQPENNYKTTPPVLDSDGSFFLYSKLTVDKSRWQQGNVFSCSVMHEALHNHYTQKSLSLSPGK light: SYVLTQPSSVSVAPGQTATISCGGHNIGSKNVHWYQQRPGQSPVLVIYQDNKRPSGIPERFSGSNSGNTATLTISGTQAMDEADYYCQVWDNYSVLFGGGTKLTVLGQPKANPTVTLFPPSSEELQANKATLVCLISDFYPGAVTVAWKADGSPVKAGVETTKPSKQSNNKYAASSYLSLTPEQWKSHRSYSCQVTHEGSTVEKTVAPTECS

Reference: patent US20260242485A1 (LEPU BIOPHARMA, published 2026)
